Series [1] addresses T1, ZRANB2-F12 (Homo sapiens, UniProt O95218 O95218:1-95). The experiment in a line: competition; strongest competitor in SPR competition. The conditions noted are these: tags: GST removed for FA, gel shift and SPR. As to the method:
Competition binding experiments were carried out by flowing a solution of F12 over a streptavidin chip coated with a biotinylated ssRNA oligonucleotide (containing the sequence AGGUAA) in the presence of an unlabeled competitor oligonucleotide.
Binding experiments were performed in triplicate at 25° C. on a BIACORE 3000 (Biacore). A 5′ biotin-labeled RNA oligonucleotide containing the 5′ splice site from exon 3 of the Tra2β minigene ([…]; SEQ ID NO: 29) was purified by size exclusion chromatography (Superdex 75), and unlabeled competitor oligonucleotides i.e., […] from exon 1 (SEQ ID NO: 30), […] from exon 2 (SEQ ID NO: 31), and […] from exon 3 (SEQ ID NO: 32) were used without further purification. Protein and RNA samples were dialysed into 10 mM sodium phosphate (pH 7.2), 50 mM NaCl, 1 mM DTT, and 0.005% NP20 and filtered. The biotinylated RNA was heated to 65° C. for 5 min, cooled on ice, and then immobilized onto a streptavidin-coated sensor chip to a total of approximately 160 relative units. Solutions of 750 nM F12 in the presence of 1 molar equivalent of each competitor RNA were injected in random order over the sensor chip (at a flow rate of 20 μL/min for 120 sec) and allowed to undergo a 120-sec dissociation time; a further 300-sec interval was allowed between injections. Data were analyzed by using BIA Evaluation software (Biacore). […]
A general note: A gel shift assay detects complexes by their altered migration in electrophoresis.

Series [2] deals with T1, ZRANB2-F12. The experiment in a line: EMSA; dsDNA control. The conditions noted are these: tags: GST removed for FA, gel shift and SPR; label: 32P. As to the method:
(§1) Gel Shift assays e.g., FIGS. 1B, 32A, were carried out using standard protocols. In brief, oligonucleotides were 5′ end-labelled with T4 polynucleotide kinase and annealed. Binding reactions were set up in a volume of 30 μL and contained a constant concentration of ³²P-labeled probe (0.1 pmol) and increasing concentrations of F12, in a buffer consisting of 10 mM Mops (pH 7.2), 50 mM KCl, 5 mM MgCl₂, 1 mM DTT, 0.03 mg/mL heparin, and 5% glycerol. Binding reactions were set up on ice and incubated at 4° C. for 30 min, after which time 15 μL of each sample was loaded onto a prerun 8% native polyacrylamide gel made up in 0.5× Tris-borate buffer, and electrophoresed (250V, 1 h, 4° C.). The oligonucleotide sequence used for gel shift experiments was […] (SEQ ID NO: 28); the site was mutated by changing the central GGU to CUG.
(§2) To determine whether the AGGUAA motif was sufficient for binding, the binding of the double finger construct F12 to a 17-nt RNA oligonucleotide containing a single AGGUAA motif was tested as described in Section 1.4 above with dsDNA, ssDNA, and dsRNA also tested as controls. […] Mutation of the central GGU, which is the most highly-conserved element in the SELEX consensus to CUG, abrogated the interaction, showing that the interaction is sequence specific (FIG. 1B).

For series [3], the target named is T1, ZRANB2-F12. The experiment in a line: EMSA; dsRNA control. Particulars: tags: GST removed for FA, gel shift and SPR; label: 32P. As to the method:
as §1, §2

A further series has as its target T2, ZRANB2-F2 (untagged) (Homo sapiens, UniProt O95218 O95218:65-95).
T2 chain: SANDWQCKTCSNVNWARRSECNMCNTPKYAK
The experiment in a line: 15N-HSQC titration, 1:1 complex. Here is the method: For RNA titrations, deprotected RNA oligonucleotides i.e., having the sequence AGGUAA, […] (SEQ ID NO: 25), or […] (SEQ ID NO: 26) and the appropriate protein were dialyzed into 10 mM Mops (pH 7.2) and 0.5 mM DTT. Protein and RNA concentrations were calculated from A₂₈₀ and A₂₆₀, respectively. Final concentrations of complexes after titrations were typically approximately 0.1-0.5 mM. Assignments of the F2:RNA complex (1:1 or 1:1.2 molar ratio) were made at 25° C. as described above.
The inventors then carried out chemical-shift perturbation experiments, titrating short (6 or 10 nt) RNA oligonucleotides containing a single AGGUAA motif into ¹⁵N-labeled F2.

The target in another series is T3, ZRANB2-F2 (Homo sapiens, UniProt O95218 O95218:65-95).
T3 chain: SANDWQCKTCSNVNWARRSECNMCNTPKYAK
The experiment in a line: FP; GST-F2; 10 mM Tris pH 8.0, 50 mM KCl, 5 mM MgCl2, heparin, 25 C. The conditions noted are these: tags: GST fusion (FA); label: 5'-fluorescein (FA) or 32P (gel shift). Here is the method: (§3) Fluorescence Anisotropy titrations e.g., as shown in FIGS. 1D-F, 8 and 35, were carried out using standard protocols. In brief, 5′-Fluorescein-labeled RNA oligonucleotides were quantified by A₂₆₀, correcting for fluorescein absorbance by using A₄₉₃. For single-site experiments, the sequence […] (SEQ ID NO: 28), or single base mutants thereof, was used. For double-site experiments, two AGGUAA sites were separated by different length sequences as indicated, and the total oligonucleotide lengths were kept constant by the symmetrical addition of adenines to each end. The anisotropy titrations were performed with a starting RNA concentration of 50 nM in a buffer comprising either 10 mM Tris (pH 8.0), 50 mM KCl, 5 mM MgCl₂, 0.05 mg/mL heparin, and 1 mM DTT (for GST fusion constructs) or 10 mM Mops (pH 7.3), 50 mM NaCl, 0.05 mg/mL heparin, and 1 mM DTT (for ZRANB2-F12). RNasin (Promega) was also added to the protein solution to a concentration of 2 units/μL. Protein was titrated into this starting solution and anisotropy values measured on a Cary Eclipse fluorescence spectrophotometer fitted with manual polarizer and long-pass filters set to 475 and 515 nm for excitation and emission, respectively. […] Association constants were determined by nonlinear least squares regression analysis using a 1:1 binding model.

The target of a further series is T4, ZRANB2-F2 R82Q (Homo sapiens, UniProt O95218 O95218:65-95, R82Q).
T4 chain: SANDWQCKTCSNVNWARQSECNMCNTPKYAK
The experiment in a line: FP. Particulars: label: 5'-fluorescein (FA) or 32P (gel shift). As to the method:
as §3, with “The anisotropy titrations were performed with a starting RNA concentration of 50 nM in a buffer comprising either 10 mM Tris (pH 8.0), 50 mM KCl, 5 mM MgCl₂, 0.05 mg/mL heparin, and 1 mM DTT (for GST fusion constructs) or 10 mM Mops (pH 7.3), 50 mM NaCl, 0.05 mg/mL heparin, and 1 mM DTT (for ZRANB2-F12). RNasin (Promega) was also added to the protein solution to a concentration of 2 units/μL.” left out
To determine whether changing arginine-82 (R82) would affect the binding preference of ZRANB2-F2 from GGU to GAU, the point mutation R82Q in ZNF 2 of ZRANB2 was made and the ability of both the wild type (W) protein and the R82Q mutant to bind to AGGUAA and AGAUAA was assessed by fluorescence anisotropy binding assays as described previously in Example 1.

The next series has as its target T5, ZRANB2-F2 K72A (Homo sapiens, UniProt O95218 O95218:65-95, K72A).
T5 chain: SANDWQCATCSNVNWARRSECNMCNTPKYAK
In words: FP; much smaller change in affinity. The conditions noted are these: label: 5'-fluorescein (FA) or 32P (gel shift). Here is the method: as §3, with “model. […]” for “model.”

A further series has as its target T6, ZRANB2-F2 T73A (Homo sapiens, UniProt O95218 O95218:65-95, T73A).
T6 chain: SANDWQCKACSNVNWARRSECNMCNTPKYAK
In words: FP; much smaller change in affinity. The conditions noted are these: label: 5'-fluorescein (FA) or 32P (gel shift). As to the method: as §3, with “model. […]” for “model.”

The target of the next series is T7, ZRANB2-F1 (Homo sapiens, UniProt O95218 O95218:1-45).
T7 chain: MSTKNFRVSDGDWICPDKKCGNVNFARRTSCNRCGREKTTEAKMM
In words: FP; GST-F1; 10 mM Tris pH 8.0, 50 mM KCl, 5 mM MgCl2, heparin, 25 C. The conditions noted are these: tags: GST fusion; label: 5'-fluorescein (FA) or 32P (gel shift). As to the method:
as §3, with “The anisotropy titrations were performed with a starting RNA concentration of 50 nM in a buffer comprising either 10 mM Tris (pH 8.0), 50 mM KCl, 5 mM MgCl₂, 0.05 mg/mL heparin, and 1 mM DTT (for GST fusion constructs) or 10 mM Mops (pH 7.3), 50 mM NaCl, 0.05 mg/mL heparin, and 1 mM DTT (for ZRANB2-F12). RNasin (Promega) was also added to the protein solution to a concentration of 2 units/μL.” left out
Constructs of the two individual domains, F1 (FIG. 2, residues 1-45) and F2 (FIG. 2, residues 65-95), were cloned expressed and purified as GST fusions described in section 1.2 above, and tested their ability to bind ssRNA by fluorescence anisotropy as described in section 1.5 above, using a ssRNA oligonucleotide bearing a 5′ fluorescein tag and containing a single AGGUAA site.

The target of series [4] is T1, ZRANB2-F12. The experiment in a line: EMSA; 10 mM Mops pH 7.2, 50 mM KCl, 5 mM MgCl2, heparin, 4 C. The conditions noted are these: tags: GST removed for FA, gel shift and SPR; label: 5'-fluorescein (FA) or 32P (gel shift). As to the method:
as §1, §2

The values below come from patent publication US20130022590, “Compositions Comprising Zinc Finger Domains and Uses Therefor” (published 2013).

Regarding CUCUGAAUCUAGGUAAGAAAG (ssRNA) [Tra2-beta exon 3 5' splice site competitor], in the series with ZRANB2-F12 [1], the binding result was “binds”.

B1: 17-nt site as dsDNA (dsDNA)
DNA 1: GCAACCAGGTAAAGTCT
DNA 2: AGACTTTACCTGGTTGC
modifications: [none]
On to B1, for which the binding result in the series with ZRANB2-F12 [2] is recorded as “no binding”.

B2: 17-nt site as dsRNA (dsRNA)
RNA 1: GCAACCAGGUAAAGUCU
RNA 2: AGACUUUACCUGGUUGC
As to B2, in the series with ZRANB2-F12 [3], the binding result was “no binding”.

Regarding CCAGGUAAAG (ssRNA) [10-nt AGGUAA RNA], in the series with ZRANB2-F2 (untagged), the binding result is “binds”.

For GCAACCAGGUAAAGUCU (ssRNA) [17-nt AGGUAA ssRNA], the figures for the Ka with ZRANB2-F2 and with ZRANB2-F1 were 1e+06 M⁻¹ and 3e+06 M⁻¹, respectively. Moreover, the binding signal in the series with ZRANB2-F2 R82Q is roughly 2 fold lower than WT F2. For the same molecule, the binding result with ZRANB2-F2 K72A, in the series with ZRANB2-F2 T73A and with ZRANB2-F12 [4] was “binds” each time.
